{
  "source": "paper PMC11209935",
  "about": "(Cell, 2023)",
  "binders": {"B1": {"name": "RPA4 (subunit of recombinant Alt-RPA) (natural protein, human, UniProt Q13156 1-261, looked up)", "chain": "MSKSGFGSYGSISAADGASGGSDQLCERDATPAIKTQRPKVRIQDVVPCNVNQLLSSTVFDPVFKVRGIIVSQVSIVGVIRGAEKASNHICYKIDDMTAKPIEARQWFGREKVKQVTPLSVGVYVKVFGILKCPTGTKSLEVLKIHVLEDMNEFTVHILETVNAHMMLDKARRDTTVESVPVSPSEVNDAGDNDESHRNFIQDEVLRLIHECPHQEGKSIHELRAQLCDLSVKAIKEAIDYLTVEGHIYPTVDREHFKSAD"}},
  "biological_target": "RPA1 (subunit of recombinant RPA and Alt-RPA) (human, UniProt P27694 1-616)",
  "sequence (P27694 whole entry)": "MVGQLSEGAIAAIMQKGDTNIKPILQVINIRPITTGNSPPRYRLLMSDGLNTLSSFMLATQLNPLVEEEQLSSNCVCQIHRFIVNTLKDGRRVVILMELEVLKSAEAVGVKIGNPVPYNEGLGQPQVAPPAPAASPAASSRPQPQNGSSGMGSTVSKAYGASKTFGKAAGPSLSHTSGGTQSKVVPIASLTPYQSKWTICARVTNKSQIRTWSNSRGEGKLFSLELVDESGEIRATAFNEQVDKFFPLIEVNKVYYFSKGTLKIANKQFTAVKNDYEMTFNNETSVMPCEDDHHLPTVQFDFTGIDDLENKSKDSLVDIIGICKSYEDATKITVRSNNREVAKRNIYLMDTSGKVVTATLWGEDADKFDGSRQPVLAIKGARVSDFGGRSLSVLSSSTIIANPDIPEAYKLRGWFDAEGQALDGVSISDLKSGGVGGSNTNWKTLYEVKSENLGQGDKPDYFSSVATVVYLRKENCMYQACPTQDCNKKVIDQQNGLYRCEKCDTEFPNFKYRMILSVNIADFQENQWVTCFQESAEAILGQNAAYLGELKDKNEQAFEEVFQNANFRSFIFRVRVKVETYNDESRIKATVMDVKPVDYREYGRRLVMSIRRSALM",
  "assay": "mass photometry",
  "data": [
    {"binder": "B1", "values": [
      {"measurement": "binding result", "result": "binds"}
    ]}
  ]
}
